Changes are numbered by the printed parent chain. Entries after “also recorded” stand apart in the source; their conditions may differ.
T1: Hu-Nectin4 IgC1C2-V5 (modified Nectin-4 lacking the Ig-like V domain, C1C2 construct) (Homo sapiens, UniProt Q96NY8)
T1 construct: expressed in transfected cells; host or cells: CHO
T1 sequence (Q96NY8 148-510): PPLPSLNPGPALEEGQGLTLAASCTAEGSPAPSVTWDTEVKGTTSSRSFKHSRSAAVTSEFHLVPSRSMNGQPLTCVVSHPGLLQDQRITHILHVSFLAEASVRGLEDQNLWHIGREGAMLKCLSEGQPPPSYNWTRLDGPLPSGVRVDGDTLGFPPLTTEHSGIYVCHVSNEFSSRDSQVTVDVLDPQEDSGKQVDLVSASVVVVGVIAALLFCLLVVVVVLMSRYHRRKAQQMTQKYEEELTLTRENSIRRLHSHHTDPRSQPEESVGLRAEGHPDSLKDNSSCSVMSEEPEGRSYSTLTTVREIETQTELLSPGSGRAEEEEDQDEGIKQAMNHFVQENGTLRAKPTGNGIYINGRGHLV

T2: wild-type human Nectin-4 (Homo sapiens, UniProt Q96NY8)
T2 construct: expressed in transfected cells; host or cells: CHO (huNectin4 Cl.3C8)
T2 sequence (Q96NY8 32-510): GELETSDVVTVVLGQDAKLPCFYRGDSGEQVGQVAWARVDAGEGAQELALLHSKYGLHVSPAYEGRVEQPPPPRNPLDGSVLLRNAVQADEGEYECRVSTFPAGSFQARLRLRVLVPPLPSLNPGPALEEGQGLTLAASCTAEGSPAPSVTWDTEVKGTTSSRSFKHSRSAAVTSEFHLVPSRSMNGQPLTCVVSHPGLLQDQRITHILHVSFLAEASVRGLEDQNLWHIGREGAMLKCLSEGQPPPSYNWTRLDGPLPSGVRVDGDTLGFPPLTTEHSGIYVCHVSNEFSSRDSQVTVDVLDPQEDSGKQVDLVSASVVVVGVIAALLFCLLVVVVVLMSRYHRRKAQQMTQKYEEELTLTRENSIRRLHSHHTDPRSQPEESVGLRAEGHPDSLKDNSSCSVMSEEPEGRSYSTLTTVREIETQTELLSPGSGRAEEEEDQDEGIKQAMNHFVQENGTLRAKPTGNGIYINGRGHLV

B1: 5E7 (antibody, V domains shown)
VH: QVQLQQPGAELVKPGASVKLSCKASGYIFTSYWMHWVKQRPGQGLEWIGEIDPSDSYTNYNQKFKGKATLTLDKSSSTTYMQLSSLTSEDSAVYYCVRGYGNYGDYWGQGTTLTVSS
VL: DVVMTQAAFSNPVTLGTSASISCRSSKSLLHSNGITYLYWYLQKPGQSPQLLIYQMSNLASGVPDRFSSSGSGTDFTLRISRVEAEDVGVYYCAQNLELPWTFGGGTKLEIK
B2: 10B12: anti-Nectin-4 antibody, VH SEQ ID NO: 24, VL SEQ ID NO: 25, binds junction of domain C1 and V (antibody, listed as Mus musculus, V domains shown)
VH: B1 VH with I28T, L72V, T79A
VL: B1 VL with V2I
B3: N41 (antibody, V domains shown)
VH: QVQLKQSGPGLVQPSQSLSITCTVSGFSLTNYGVHWVRQSPGKGLEWLGVIWSGGSTDYNAAFISRLSISKDTSKSQVFFKMNSLQADDTAIYYCARELIHAMDNWGQGTSVTVSS
VL: DIQMTQSPASLSVSVGETVTITCRASENIYSNLAWYQQKQGNSPQLLVFAATNLADGVPSRFSGSGSGTQYSLKINSLQSEDFGTYYCQHFWGTPTFGGGTKLEIK

Target: T1, Hu-Nectin4 IgC1C2-V5 (modified Nectin-4 lacking the Ig-like V domain, C1C2 construct)
Test: Flow cytometry binding to cells expressing the Nectin-4 C1C2 construct
Procedure: (§1) The characterization of the binding of the antibodies on Nectin-4 domains was performed by flow cytometry using cells made to express the wild-type human Nectin-4 protein and cells made to express a modified Nectin-4 having the Ig-like C2 type 1 and the Ig-like C2 type 2 domains and lacking the Ig-like V domain (the C1C2 construct). The latter protein additionally bears a V5 tag for flow cytometry cell sorting, and cells were used as Nectin4-C1C2-V5 sorted cells.
Wild-type Nectin-4 (the CI.3C8 cell line), a C2 construct (containing the Ig-like C2 type 2 domain and lacking both the V and the C1 domains) and the C1C2 construct allow the determination of whether test antibodies bind to the V or different C domains. Briefly, nucleic acid sequences encoding different human Nectin-4 domains were amplified by PCR. The PCR products were inserted into an expression vector at appropriate restriction sites. A leader peptide, and for C1C2 and C2 an N-terminal V5 tag having the amino acid sequence […] (SEQ ID NO: 41), were added, and expression at the surface of cells was confirmed by flow cytometry. The amino acid sequences of the resulting different human Nectin-4 domain fragment-containing proteins are shown below (V5 tag underlined). The vectors were then transfected into the CHO cell line to obtain stable clones expressing the different Nectin-4 domain proteins at the cell surface.

Molecule | binding to the C1C2 construct
B1 | partial loss of binding to the C1C2 construct; also recorded: retain binding to the C1C2 construct
B2 | partial loss of binding to the C1C2 construct; also recorded: retain binding to the C1C2 construct
B3 | lost all binding to the C1C2 construct

Target: T2, wild-type human Nectin-4
Test: Flow cytometry binding to wild-type Nectin-4 expressing CHO cells
Procedure: plates of hybridoma supernatants were tested for binding on the wild-type human Nectin-4 expressing CHO cell line by flow cytometry. Briefly, Nectin-4 expressing cells were used at 0.2×10^6 cells by well in a buffer of PBS, BSA 0.5%, EDTA 5 mM. The first antibody was incubated with cells for 1h at +5±3° C. in 50 μL of supernatant. […] Acquisition HTFC flow cytometer (Intellicyt), with data analysis on ForeCyt™ software.
as §1
Wild-type Nectin-4 (the CI.3C8 cell line), a C2 construct (containing the Ig-like C2 type 2 domain and lacking both the V and the C1 domains) and the C1C2 construct allow the determination of whether test antibodies bind to the V or different C domains. Briefly, nucleic acid sequences encoding different human Nectin-4 domains were amplified by PCR. The PCR products were inserted into an expression vector at appropriate restriction sites. […] The amino acid sequences of the resulting different human Nectin-4 domain fragment-containing proteins are shown below (V5 tag underlined). The vectors were then transfected into the CHO cell line to obtain stable clones expressing the different Nectin-4 domain proteins at the cell surface.

Molecule | binding to whole (wild-type) human Nectin-4 protein
B1 | lower plateau
B2 | lower plateau
B3 | bound to the whole Nectin-4 protein

Tested on: not listed separately
Test: Binding to HEK-293T cells, negative control of the point mutant test
Set-up: species or system human
Procedure: Nectin-4 mutants were generated by PCR. The sequences amplified were run on agarose gel and purified using the Macherey Nagel PCR Clean-Up Gel Extraction kit. The purified PCR products generated for each mutant were then ligated into an expression vector, with the ClonTech InFusion system. The vectors containing the mutated sequences were prepared as Miniprep and sequenced. After sequencing, the vectors containing the mutated sequences were prepared as Midiprep using the Promega PureYield™ Plasmid Midiprep System. HEK293T cells were grown in DMEM medium (Invitrogen), transfected with vectors using Invitrogen's Lipofectamine 2000 and incubated at 37° C. in a CO2 incubator for 48 hours prior to testing for transgene expression. The targeted amino acid mutations are shown in Table 2 below, listing the residue present in wild-type Nectin-4/position of residue/residue present in mutant Nectin-4, with position reference being to the Nectin-4 protein with leader peptide shown in SEQ ID NO: 1.

Molecule | association, EXPI medium (negative control)
B1 | −
B2 | −
B3 | −

— patent publication US20240325557A1, “TREATMENT OF CANCER” (INNATE PHARMA, priority 2020, published 2024)
